Biological target: N36 peptide of HIV-1 gp41 (HIV-1)
Assay: circular dichroism at 222 nm, thermal melt, 10 µM of each peptide, PBS pH 7.0

C34 Met^629→Ala (peptide) and C34 peptide of HIV-1 gp41, wildtype are the same in Tm (apparent melting temperature of the N36/C34 complex): 66 °C for the first, 66 °C for the second.

First: C34 Ile^635→Ala (peptide)
Second: C34 Trp^628→Ala (peptide)
The Tm (apparent melting temperature of the N36/C34 complex) of the first is higher: 55 °C for the first, 53 °C for the second.

Going from C34 Trp^631→Ala (peptide) to C34 Arg^633→Ala (peptide), the Tm (apparent melting temperature of the N36/C34 complex) rises from 37 °C to 65 °C.

Biological target: T1, HIV-1 HXB2 envelope glycoprotein (gp41 subunit, N-helix coiled-coil) (HIV-1 (HXB2), UniProt P04578 512-856)
Assay: cell-based or functional assay

First: Ac-WMEFDREINNYTSLIHSLIEESQNQQEKNEQELL-NH2 [C34 Trp^631→Phe]
Second: Ac-WMEGDREINNYTSLIHSLIEESQNQQEKNEQELL-NH2 [C34 Trp^631→Gly]
The “IC50 (nanomolar) cell fusion” value of the first is 16-fold lower: 1.6 nM for the first, 25 nM for the second.

Ac-WMELDREINNYTSLIHSLIEESQNQQEKNEQELL-NH2 [C34 Trp^631→Leu] and Ac-WMEVDREINNYTSLIHSLIEESQNQQEKNEQELL-NH2 [C34 Trp^631→Val] are within 1.5-fold of each other in “IC50 (nanomolar) cell fusion” value: 3.2 nM for the first, 4.5 nM for the second.

First: Ac-WMEFDREINNYTSLIHSLIEESQNQQEKNEQELL-NH2 [C34 Trp^631→Phe]
Second: Ac-WMEGDREINNYTSLIHSLIEESQNQQEKNEQELL-NH2 [C34 Trp^631→Gly]
The “IC50 (nanomolar) virus entry” value of the first is 11-fold lower: 3.6 nM for the first, 38 nM for the second.

Compared with Ac-WMELDREINNYTSLIHSLIEESQNQQEKNEQELL-NH2 [C34 Trp^631→Leu], Ac-WMEVDREINNYTSLIHSLIEESQNQQEKNEQELL-NH2 [C34 Trp^631→Val] is 2.5-fold higher in “IC50 (nanomolar) virus entry” value: 5.3 nM for the first, 13 nM for the second.

Going from Ac-WMEADREINNYTSLIHSLIEESQNQQEKNEQELL-NH2 [C34 Trp^631→Ala] to Ac-WMEWDREANNYTSLIHSLIEESQNQQEKNEQELL-NH2 [C34 Ile^635→Ala], the “decrease in inhibitory activity against wildtype C34” value falls from roughly 30 fold to roughly 2 fold.

Biological target: N36 peptide of HIV-1 gp41 (HIV-1)
Assay: circular dichroism at 222 nm, thermal melt

C34 Trp^631→Abu (peptide) and C34 Trp^631→Val (peptide) are the same in Tm (apparent melting temperature of the N36/C34 complex): 43 °C for the first, 43 °C for the second.

Going from C34 Trp^631→Nal (peptide) to C34 Trp^631→Phe (peptide), the Tm (apparent melting temperature of the N36/C34 complex) falls from 62 °C to 59 °C.

Going from C34 Trp^631→Gly (peptide) to C34 Trp^631→Leu (peptide), the Tm (apparent melting temperature of the N36/C34 complex) rises from 35 °C to 50 °C.

Biological target: T1, HIV-1 HXB2 envelope glycoprotein (gp41 …)
Assay: cell-based or functional assay
Remark: another data set of the same source

Ac-WMEWDAEINNYTSLIHSLIEESQNQQEKNEQELL-NH2 [C34 Arg^633→Ala] and Ac-WMEWDREANNYTSLIHSLIEESQNQQEKNEQELL-NH2 [C34 Ile^635→Ala] are within 1.5-fold of each other in “IC50 (nM) cell fusion” value: 0.76 nM for the first, 0.96 nM for the second.

Going from Ac-WMEWDAEINNYTSLIHSLIEESQNQQEKNEQELL-NH2 [C34 Arg^633→Ala] to Ac-WMEWDREANNYTSLIHSLIEESQNQQEKNEQELL-NH2 [C34 Ile^635→Ala], the “IC50 (nM) viral entry” value rises from 2.6 nM to 4.1 nM (1.6-fold).
